# In paper PMC12352893, “Neuraminidase 1 secondary deficiency contributes to CNS pathology in neurological mucopolysaccharidoses via brain protein hypersialylation” (The Journal of Clinical Investigation, 2025):
# B1: β-galactosidase (GLB1), mouse brain (enzyme, mouse (endogenous in brain tissue), UniProt P23780 30-647, looked up)
# chain: QRTFKLDYSRDRFLKDGQPFRYISGSIHYFRIPRFYWEDRLLKMKMAGLNAIQMYVPWNFHEPQPGQYEFSGDRDVEHFIQLAHELGLLVILRPGPYICAEWDMGGLPAWLLEKQSIVLRSSDPDYLVAVDKWLAVLLPKMKPLLYQNGGPIITVQVENEYGSYFACDYDYLRFLVHRFRYHLGNDVILFTTDGASEKMLKCGTLQDLYATVDFGTGNNITQAFLVQRKFEPKGPLINSEFYTGWLDHWGKPHSTVKTKTLATSLYNLLARGANVNLYMFIGGTNFAYWNGANTPYEPQPTSYDYDAPLSEAGDLTKKYFALREVIQMFKEVPEGPIPPSTPKFAYGKVALRKFKTVAEALGILCPNGPVKSLYPLTFTQVKQYFGYVLYRTTLPQDCSNPKPIFSSPFNGVRDRAYVSVDGVPQGILDRNLMTALNIRGKAGATLDILVENMGRVNYGRFINDFKGLISNMTINSTVLTNWTVFPLNTEAMVRNHLWGREASDEGHLDGRSTSNSSDLILPTFYVGNFSIPSGIPDLPQDTFIQFPGWSKGQVWINGFNLGRYWPTMGPQKTLFVPRNILTTSAPNNITVLELEFAPCSEGTPELCTVEFVDTPVIS
# notes: β-galactosidase (GLB1), mouse, endogenous in brain extracts; detected by its enzymatic activity in gel-filtration fractions; Eluted both in the ~1,200 kDa LMC peak and as a 240 kDa tetramer; also called lysosomal β-galactosidase; source: endogenous, total protein extracts from mouse brain tissue
# Target: the molecule itself
# Assay: SEC; gel filtration of total protein extracts from brain tissue of WT mice; GLB1 and NEU1 enzymatic activities measured in the eluted fractions
protein,measurement,value
B1,stoichiometry N,4
